Reference: US20060171977A1, “Methods for the identification of fungicidally active compounds based on thymidylate kinase” (priority 2004, published 2006)

How the values were obtained:
[1] = substrate: Cc1cn([C@H]2C[C@H](O)[C@@H](COP(=O)(O)O)O2)c(=O)[nH]c1=O; assay: KM determination of thymidylate kinase substrates (coupled PK/LDH assay, Lineweaver-Burk plot); type: biochemical, Saccharomyces cerevisiae; conditions: other: substrate of thymidylate kinase from yeast; FIG. 5
Experimental: (§1) FIG. 4: Graphical illustration of the kinetics of conversion of thymidylate and ATP by various concentration of thymidylate kinase in the assay. In an assay volume of 50 μl, 500 μM thymidylate, 500 μM ATP, 300 μM NADH, 400 μM PEP (phosphoenol pyruvate), 0.1 U pyruvate kinase and 0.1 U lactate dehydrogenase were employed. The conversion occurred on the basis of a decrease in absorption at 340 nm due to the reaction of the released ADP with PEP and NADH to form lactate and NAD.
(§2) FIG. 5: Lineweaver-Burk plot for determination of the KM value of dTMP (A) and ATP (B). The measured values are illustrated according to Lineweaver and Burk, i.e. 1/Vo=1/Vmax+1/S×(KM/Vmax), where Vo is the original reaction speed, Vmax is the maximum attainable reaction speed and S is the substrate concentration. Vmax and KM can then be calculated as the intercepts on the vertical axis and horizontal axis, 1/V and 1/KM. The KM value for dTMP is 0.17 mM […], the KM value for ATP is 0.16 mM […].
(§3) A preferred method (see Example 3) makes use of the fact that an adenosine diphosphate molecule (ADP) is released during the thymidylate kinase reaction. The activity, or the increase or decrease in activity, of the polypeptide according to the invention can thus be determined via detection of the resulting ADP. […]

[2] = substrate: Nc1ncnc2c1ncn2[C@@H]1O[C@H](COP(=O)(O)OP(=O)(O)OP(=O)(O)O)[C@@H](O)[C@H]1O; assay: as above; type: biochemical, Saccharomyces cerevisiae; conditions: other: substrate of thymidylate kinase from yeast; FIG. 5
Experimental: as §1, §2, §3

B1: thymidylate kinase from yeast (Saccharomyces cerevisiae S288C) (protein)
chain: MMGRGKLILIEGLDRTGKTTQCNILYKKLQPNCKLLKFPERSTRIGGLINEYLTDDSFQLSDQAIHLLFSANRWEIVDKIKKDLLEGKNIVMDRYVYSGVAYSAAKGTNGMDLDWCLQPDVGLLKPDLTLFLSTQDVDNNAEKSGFGDERYETVKFQEKVKQTFMKLLDKEIRKGDESITIVDVTNKGIQEVEALIWQIVEPVLSTHIDHDKFSFF
notes: His6 (with pDest17 vector linker) (N); made in house; host or cells: E. coli BL21(DE3)pLysS
Km [1]: 170 µM | Km [2]: 160 µM
